Laboratory results reported in article PMC3442271.
Where a chain is given by its changes, count along the chain named.

Key:
[1] = molecular target: T1, Endonuclease III (Endo III) (Escherichia coli, UniProt P0AB83 1-211); assay: EMSA
T1 sequence: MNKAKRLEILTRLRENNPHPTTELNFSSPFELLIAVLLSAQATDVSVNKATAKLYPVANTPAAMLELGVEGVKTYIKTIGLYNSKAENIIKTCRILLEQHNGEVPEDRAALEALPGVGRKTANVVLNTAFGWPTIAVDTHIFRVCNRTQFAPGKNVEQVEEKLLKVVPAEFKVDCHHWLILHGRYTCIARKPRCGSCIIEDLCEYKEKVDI

XerC;XerD = molecular target: T2, XerC;XerD (Vibrio cholerae;Vibrio cholerae, UniProt Q9KVL4;Q9KPE9 1-311;1-302, |); assay: footprinting
T2 sequence 1: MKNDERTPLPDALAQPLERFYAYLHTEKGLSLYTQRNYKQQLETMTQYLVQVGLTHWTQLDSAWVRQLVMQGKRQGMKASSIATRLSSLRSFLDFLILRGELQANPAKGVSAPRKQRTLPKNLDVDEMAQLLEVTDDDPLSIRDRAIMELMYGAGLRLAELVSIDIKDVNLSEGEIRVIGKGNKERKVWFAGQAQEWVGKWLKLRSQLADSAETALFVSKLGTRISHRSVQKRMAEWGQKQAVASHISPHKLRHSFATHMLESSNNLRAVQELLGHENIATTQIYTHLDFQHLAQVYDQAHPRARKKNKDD
T2 sequence 2: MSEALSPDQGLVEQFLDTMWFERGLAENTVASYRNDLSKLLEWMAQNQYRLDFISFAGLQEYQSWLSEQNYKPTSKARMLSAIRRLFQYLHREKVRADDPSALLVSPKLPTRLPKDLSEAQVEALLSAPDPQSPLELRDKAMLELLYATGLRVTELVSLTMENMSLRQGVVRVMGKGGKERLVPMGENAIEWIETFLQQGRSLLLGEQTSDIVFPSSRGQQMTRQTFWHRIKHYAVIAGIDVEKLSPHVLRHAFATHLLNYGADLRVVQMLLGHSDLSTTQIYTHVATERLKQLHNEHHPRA

[2] = molecular target: T3, Endonuclease III (Endo III);XerC;XerD (Escherichia coli;Vibrio cholerae;Vibrio …, UniProt P0AB83;Q9KVL4;Q9KPE9 1-211;1-311;1-302, ||); assay: footprinting
T3 sequence 1: T1 sequence
T3 sequence 2: T2 sequence 1
T3 sequence 3: T2 sequence 2

[3] = molecular target: T1, Endonuclease III (Endo III); assay: competition

B1: attP(+)/dif1 pseudo-HJ (structured_DNA)
DNA 1: GATCCGTGATCACGCTGAACGCGTTTTAGCAGTGCGCATTATGTGGCGCGGCATTATGTTGAGGGGCCTAACGCCTAAAGCGGCCGCCTA
DNA 2: ATCGTAGGCGGCCGCTTTAGGCGTTAGGCCCCGTAACATAATGGCGTATAATACGCATTCGACCGTTGCCGGATCCG
DNA 3: CGATCGGATCCGGCAACGGTCGAGTGCGTATTATGTATGTTATGTTAAATGACATCCTGAGATCTCGA
DNA 4: TCGATCGAGATCTCAGGATGTCATTTAACATAACATACATAATGCGCACTGCTAAAACGCGTTCAGCGTGATCACG
[1]
  binding result: binds
XerC;XerD
  binding result: binds
[2]
  binding result: binds

B2: dif1/dif1 HJ (structured_DNA)
DNA 1: GATCCGTGATCACGCTGAACGCGTTTTAGCAGTGCGCATTATGTATGTTATGTTAAATGGCCTAACGCCTAAAGCGGCCGCCTA
DNA 2: ATCGTAGGCGGCCGCTTTAGGCGTTAGGCCATTTAACATAACATACATAATGCGCACTCGACCGTTGCCGGATCCG
DNA 3: B1 DNA 3 with T29C
DNA 4: B1 DNA 4
[3]
  binding result: binds
